Measurements published in patent US20240025997A1.
Changes are numbered by the printed parent chain. Each block holds one binder with its values, some of them ahead of it.

Columns and labels:
[1] = target: cyno ILT2 chimeric reporter receptor (cyno ILT2 extracellular domain fused to PILRbeta transmembrane/intracellular domain) (cynomolgus monkey)
[2] = target: ILT2 and/or ILT4 on human CD14+ monocytes; test: flow cytometry, fluorescently labelled antibody on CD14+ monocytes of human PBMC, donor Human 1, geometric MFI
[3] = target: T1, human ILT4 chimeric reporter receptor (ILT4 extracellular domain fused to PILRbeta transmembrane/intracellular domain) (human), Q8N423
[4] = target: human ILT2 chimeric reporter receptor (ILT2 extracellular domain fused to PILRbeta transmembrane/intracellular domain) (human), Q8NHL6
[5] = target: soluble rhesus ILT2-ECD (rhesus macaque); test: SPR (Biacore), antibody captured on Protein A chip, soluble rhesus ILT2-ECD injected (1.6-200 nM), 25 C
[6] = target: ILT2 and/or ILT4 on human CD14+ monocytes; test: flow cytometry, fluorescently labelled antibody on CD14+ monocytes of human PBMC, donor Human 2, geometric MFI
[7] = target: soluble rhesus ILT2-ECD (rhesus macaque); test: SPR (Biacore), antibody captured on Protein A chip, soluble rhesus ILT2-ECD injected, 25 C, low resolution parameters
[8] = target: soluble rhesus ILT2-ECD (rhesus macaque); test: SPR (Biacore), antibody captured on Protein A chip, soluble rhesus ILT2-ECD injected, 25 C, low resolution parameters; low resolution parameters
[9] = target: ILT2 and/or ILT4 on human CD14+ monocytes; test: flow cytometry, fluorescently-labelled antibody on CD14+ monocytes of human PBMC
[10] = target: cynomolgus monkey ILT2 (protein injected in Biacore) (cynomolgus monkey); test: SPR (Biacore), antibody captured on Protein A chip, ILT protein injected, 25 C
[11] = target: T1, human ILT4 chimeric reporter receptor …; remark: listed apart in the source

soluble rhesus ILT2-ECD (rhesus macaque), sequence (chain, as listed by the source limits assumed, form in doubt): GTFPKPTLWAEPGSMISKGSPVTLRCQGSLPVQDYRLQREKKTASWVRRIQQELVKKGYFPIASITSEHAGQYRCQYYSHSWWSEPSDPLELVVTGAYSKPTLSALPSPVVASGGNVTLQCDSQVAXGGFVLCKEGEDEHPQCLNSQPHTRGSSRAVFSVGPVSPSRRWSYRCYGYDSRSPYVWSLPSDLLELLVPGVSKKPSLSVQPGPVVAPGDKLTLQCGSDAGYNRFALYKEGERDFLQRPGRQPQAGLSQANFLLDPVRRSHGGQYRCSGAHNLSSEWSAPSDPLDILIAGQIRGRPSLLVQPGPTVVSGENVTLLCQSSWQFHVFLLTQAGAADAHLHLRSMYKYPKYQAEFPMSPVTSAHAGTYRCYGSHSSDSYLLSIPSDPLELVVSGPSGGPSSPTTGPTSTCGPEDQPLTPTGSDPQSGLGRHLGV
cynomolgus monkey ILT2 (protein injected in Biacore) (cynomolgus monkey), sequence (chain, as listed by the source limits assumed, form in doubt): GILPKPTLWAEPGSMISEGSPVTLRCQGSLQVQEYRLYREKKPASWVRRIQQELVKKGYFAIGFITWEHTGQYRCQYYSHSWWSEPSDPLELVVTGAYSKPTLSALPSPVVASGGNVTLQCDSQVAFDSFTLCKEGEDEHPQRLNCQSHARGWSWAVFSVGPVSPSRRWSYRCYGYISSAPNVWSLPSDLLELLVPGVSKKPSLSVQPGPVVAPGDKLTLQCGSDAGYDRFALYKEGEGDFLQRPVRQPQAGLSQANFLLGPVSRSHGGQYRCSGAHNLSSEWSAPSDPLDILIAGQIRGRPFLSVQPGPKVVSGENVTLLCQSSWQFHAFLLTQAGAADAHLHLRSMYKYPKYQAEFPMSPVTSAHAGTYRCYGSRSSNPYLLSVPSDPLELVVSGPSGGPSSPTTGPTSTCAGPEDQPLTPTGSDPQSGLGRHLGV
T1 sequence (Q8N423 other isoform, or with tags, fused parts or gaps mutant limits assumed): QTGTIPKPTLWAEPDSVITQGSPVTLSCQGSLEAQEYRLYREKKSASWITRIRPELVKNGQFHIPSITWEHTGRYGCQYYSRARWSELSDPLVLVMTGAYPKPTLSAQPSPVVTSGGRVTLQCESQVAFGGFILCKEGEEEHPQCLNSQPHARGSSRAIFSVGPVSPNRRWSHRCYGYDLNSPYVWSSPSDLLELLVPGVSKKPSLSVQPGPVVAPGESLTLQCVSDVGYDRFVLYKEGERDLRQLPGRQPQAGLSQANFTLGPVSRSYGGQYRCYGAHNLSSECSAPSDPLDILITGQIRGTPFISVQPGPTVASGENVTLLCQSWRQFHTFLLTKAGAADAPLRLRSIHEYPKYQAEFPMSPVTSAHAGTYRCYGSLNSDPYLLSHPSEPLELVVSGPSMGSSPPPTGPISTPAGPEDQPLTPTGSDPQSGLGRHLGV
human ILT2 chimeric reporter receptor (ILT2 extracellular domain fused to PILRbeta transmembrane/intracellular domain) (human), Q8NHL6, sequence (Q8NHL6 24-461 limits assumed, change not shown): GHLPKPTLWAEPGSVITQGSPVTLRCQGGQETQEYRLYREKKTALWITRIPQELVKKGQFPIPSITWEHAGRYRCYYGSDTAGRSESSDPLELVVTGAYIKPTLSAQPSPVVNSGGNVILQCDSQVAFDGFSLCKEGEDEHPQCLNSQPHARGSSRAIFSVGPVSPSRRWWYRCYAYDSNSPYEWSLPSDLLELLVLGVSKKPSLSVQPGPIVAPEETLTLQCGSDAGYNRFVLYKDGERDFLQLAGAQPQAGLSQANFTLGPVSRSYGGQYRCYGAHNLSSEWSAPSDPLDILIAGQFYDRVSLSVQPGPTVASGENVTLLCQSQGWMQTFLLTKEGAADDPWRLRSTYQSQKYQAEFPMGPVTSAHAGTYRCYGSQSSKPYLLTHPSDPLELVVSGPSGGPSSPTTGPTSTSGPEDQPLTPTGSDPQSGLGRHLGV

- IC50 (read off the curve), %GFP+ cyno ILT2 reporter cells co-cultured with Raji cells [1]: 40 pM
- EC50 (read off the curve) [2]: 4000 pM
- IC50 (read off the curve), %GFP+ human ILT4 reporter cells co-cultured with Raji cells [3]: 70 pM
- IC50 (read off the curve), %GFP+ human ILT2 reporter cells co-cultured with Raji cells [4]: 200 pM
- Kd [5]: 1200 pM
- koff [5]: 6e-05 s⁻¹
- kon [5]: 50000 M⁻¹ s⁻¹
- EC50 (read off the curve) [6]: 5000 pM
B1: anti-ILT2/ILT4 antibody 73D1 (antibody, V domains shown)
VH: AVQLQQSGPELVKPGASVKISCKASGYTFTDYYINWVKQSHGKSLQWIGNVNPNDGGTTYNQKFKGKATLTVDKSSSTAYMELRSLTSEDSAVYYCARREIYFYGTIYYYAMDYWGQGTSVTVSS
VL: DIVLTQSPASLAVSLGQRATISCRASESVDYYGNSFMYWYQQKPGRPPNLLIYFASNLESGVPARFSGSGSRTDFTLTIDPVEADDAATYYCQQNNEDPWTFGGGTKLEIK

- Kd [7]: < 100 pM
- koff [7]: 1e-05 s⁻¹
- kon [8]: 20000 M⁻¹ s⁻¹
B2: anti-ILT2/ILT4 antibody 64A12 (antibody, V domains shown)
VH: EVQLVESGGGLVQPKGSLKLSCAASGFTFNTYAMHWVRQAPGKGLEWVARIRSKSSNYATYYADSVKDRFTISRDDSQSMLYLQMNNLKTEDTAMYYCVRDGIYYYDTMYYYAMDYWGQGTSVTVSS
VL: B1 VL with D1N, M37I, R46Q, N49K, D85A, T89S

- Kd [7]: < 100 pM
- koff [7]: 1e-05 s⁻¹
- kon [7]: 31000 M⁻¹ s⁻¹
B3: anti-ILT2/ILT4 antibody 73C4 (antibody, V domains shown)
VH: B1 VH with I34M, Q46E, D55N, T59S
VL: B1 VL

- Kd [5]: 200 pM
- koff [5]: 2.1e-05 s⁻¹
- kon [5]: 100000 M⁻¹ s⁻¹
B4: anti-ILT2/ILT4 antibody 51A1 (antibody, V domains shown)
VH: B2 VH with D107G
VL: B1 VL with D1N, R46Q, N49K, D85A, T89S

- IC50 (read off the curve), %GFP+ human ILT2 reporter cells co-cultured with Raji cells [4]: 40 pM
B5: anti-ILT2 antibody 27F9 (antibody, V domains shown)
VH: QVQLKESGPGLVAPSQSLSITCTVSGFSLTNYGVSWVRQPPGKGLEWLGIIWGDGSTNYHSALISRLSISKDNSKSQVFLKLNSLQADDTATYYCAKPNWDTYAMDFWGQGTSVTVSS
VL: DIQMTQTTSSLSASLGDRVTISCRASQDISNFLNWYQQKPDGTVKLLIYCTSKLHSGVPSRFSGSGSETDYSLTISNLEQEDIATYFCQQGNTLPPTFGGGTKLEII

- EC50 [9]: 8800 pM
- Kd [10]: 19100 pM
- koff [10]: 0.06 s⁻¹
- kon [10]: 3.4e+06 M⁻¹ s⁻¹
B6: humanized anti-ILT2/ILT4 antibody Hz73D1.v1 (antibody, human IgG1, kappa, N297G, V domains shown)
VH: QVQLVQSGAEVKKPGASVKVSCKASGYTFTDYYINWVRQAPGQGLEWMGNVNPNDGGTTYNQKFKGRVTMTTDTSTSTAYMELRSLRSDDTAVYYCARREIYFYGTIYYYAMDYWGQGTLVTVSS
VL: DIQLTQSPSFLSASVGDRVTITCRASESVDYYGNSFMYWYQQKPGKAPKLLIYFASNLESGVPSRFSGSGSGTEFTLTISSLQPEDFATYYCQQNNEDPWTFGGGTKVEIKR

- Kd [5]: 2300 pM
- koff [5]: 0.0014 s⁻¹
- kon [5]: 590000 M⁻¹ s⁻¹
B7: anti-ILT4 antibody 47C8 (antibody, V domains shown)
VH: EVQLQQSGPDLVKPGASVKISCKASGYSFTGYYMHWVKQSHGKSLEWIGRVYPNNGDTSYNQKFKVKAILTVDKSSSTAYMELRSLTSEDSAVYYCARGATVVESLFAYWGQGTLVTVSA
VL: DIVLTQSPASLAVSLGQRATISCRASESVDNYGNNFLHWYQQKPGQPPKLLIYRTSNLESGIPARFSGSGSRTDFTLTINPVEADDVATYYCQQSNEDPYTFGGGTKLEIK

- Kd [7]: < 100 pM
- koff [7]: 1e-05 s⁻¹
- kon [7]: 47000 M⁻¹ s⁻¹
B8: anti-ILT2/ILT4 antibody 47H6 (antibody, V domains shown)
VH: EVQLQQSGPELVKPGASVKISCKASGYTFTDYYMNWVKQSHGKSLEWIGDFNPNNGGTTYNQKFEGKATLTVDKSSNTAYMDLRSLTSEDSAVYYCARGRFYYGSLYSFDYWGQGTTLTVSS
VL: DIQMTQSPASLSASVGETVTITCRASGNIHNYLAWYQQKQGKSPHLLVYNAKTLADGVPSRFSGSGSGTQYSLKINNLQPEDFGSYYCQHFWTSITFGAGTKLDLK

- IC50 (read off the curve), %GFP+ human ILT4 reporter cells co-cultured with 721.221-HLA-G cells [11]: 20 pM
- IC50 (read off the curve), %GFP+ human ILT4 reporter cells co-cultured with Raji cells [3]: 20 pM
- Kd [5]: 2300 pM
- koff [5]: 0.0026 s⁻¹
- kon [5]: 1.1e+06 M⁻¹ s⁻¹
B9: anti-ILT4 antibody 48A5 (antibody, V domains shown)
VH: QIQLVQSGPELKKPGETVKISCKASGYTFTNYGMNWVKQAPGKGLKWMGWINTYIGEPIYADDFKGRFAFSLETSASTAYLQINNLKNEDMATYFCARRSDYDGYAMDYWGQGTSVTVSS
VL: DIVMSQSPSSLAVSVGERVTMSCKSSQSLLYSGNQKNYLAWYQQKPGQSPKLLIYWASTRESGVPDRFTGSGSGTDFTLTISSVKAEDLAVYYCQQHDSYPTFGGGSRLEIK
